B1: PTBsi1: siRNA targeting PTB mRNA, DOX-induced, generated in a cell from shRNA1 (SEQ ID NO: 1 and 2) (nucleic acid)
chain 1: GATCCCCAGGTGACAGCCGAAGTGCATTCAAGAGATGCACTTCGGCTGTCACCTTTTTTGGAAA
chain 2: AGCTTTTCCAAAAATGCACTTCGGCTGTCACCTTCTCTTGAAAGGTGACAGCCGAAGTGCAGGG
B2: PTBsi3: siRNA targeting PTB mRNA, DOX-induced, generated in a cell from shRNA3 (SEQ ID NO: 5 and 6) (nucleic acid)
chain 1: GATCCCTGACAAGAGCCGTGACTACTTCAAGAGAGTAGTCACGGCTCTTGTCATTTTTGGAAA
chain 2: AGCTTTTCCAAAAATGACAAGAGCCGTGACTACTCTCTTGAAGTAGTCACGGCTCTTGTCAGGG

How the values were obtained:
A2780 sublines = assay: Tumor growth in xenograft mouse model; type: in vivo, Athymic nu/nu mice; conditions: subcutaneous A2780 sublines; DOX 2 mg/ml in drinking water from inoculation or 12 days after; FIG. 3
Text: siRNA technology was .used to knock down the expression of PTB in tumor cells and to examine the effects of such manipulations on cell growth and malignant properties. Three siRNA (PTBsi1, PTBsi2, and PTBsi3) sequences targeting different regions of PTB mRNA were used. A siRNA can be generated as described in PCT/US2007/007352, which is herein fully incorporated by reference. Each of PTBsi1, PTBsi2, and PTBsi3 may be generated in a cell from a shRNA, which is formed after transcription of its coding sequence. The annealing of two oligonucleotides generates a DNA fragment with protruding ends compatible with Hind III and Bgl II restriction enzyme sites respectively. The coding sequences for each siRNA were cloned individually into a lentiviral vector downstream of H1 promoter and tetO element and thus the expression of these siRNAs is under control of doxycycline (DOX) (i.e. induced by DOX). We established several stable sublines carrying these expression cassettes. […] We have also examined whether knockdown of PTB could influence ovarian tumor cell growth in xenograft mouse model. […] Invasive cells were counted under microscope with high magnification (150×). […] Tumor sizes were measured in long and short dimensions every three or four days. Tumor size was calculated with formula axb2/2, where a=long dimension and b=short dimension. […]

PTB = assay: Gene expression profiling, Affymetrix HG-U133 plus 2 oligonucleotide arrays; type: cell-based; conditions: A2780/PTBsi3 cells treated with DOX
Description: Microarray analyses of genome-wide splicing patterns and gene expression profiling were performed in A2780/PTBsi3 cells with or without PTB knockdown. Gene expression profiling was assessed using Affymetrix HG-U133 plus 2 oligonucleotide arrays, and the splicing pattern was assessed by Jivan Biologics' splicing-sensitive microarrays. The former analysis was done three times and the latter was done twice with total RNAs isolated from separate experiments. We also examined the gene expression profile once in the control subline, A2780/LUCsi, grown with or without DOX.
However, in A2780/PTBsi3 cells treated with DOX (i.e. PTB knockdown), 52 genes were found consistently changed more than 2-fold in all three separate experiments. […] In total, we found 50 genes whose expression was regulated by PTB. […] We have validated these changes in a few of these genes (INHBE, CDC42, PTBP2 and PKP4) by real-time PCR or conventional RT-PCR.

| Molecule | tumor growth (A2780 sublines) | PTB downregulation (PTB; all three experiments) | genes consistently changed more than 2-fold (PTB; three separate experiments, signal intensity cutoff 200) [genes] |
| --- | --- | --- | --- |
| B1 | grew slower |  |  |
| B2 | grew slower | about 4 fold | 52 |

Source: patent publication US20100144838A1, “Methods for Identifying Modulators of Pyrimidine Tract Binding Protein” (priority 2008, published 2010)
